Measured values reported in PMC7581431.

B1: Nkd1-BirA* [murine] / NBR1 [human (endogenous in Flp-In-T-REx-293)] (parent)
chain 1: MGKLHSKPAAVCKRRESPEGDSFAVSAAWARKGIEEWIGRQRCPGSVSGPRQLRLAGTVGRGTRELVGDTSREALGEEDEDDFPLEVALPPEKIDSLGSGDEKRMERLSEPGQASKKQLKFEELQCDVSVEEDSRQEWTFTLYDFDNNGKVTREDITSLLHTIYEVVDSSVNHSPTSSKTLRVKLTVAPDGSQSKRSVLFNHTDLQSTRPRADTKPAEELRGWEKKQRAPLRFQGDSHLEQPDCYHHCVDENIERRNHYLDLAGIENYTSQFGPGSPSVAQKSELPPRISNPTRSRSHEPEAAHIPHRRPQGVDPGSFHLLDTPFAKASELQQRLRGTQDGSKHFVRSPKAQGKNMGMGHGARGARSKPPLVPTTHTVSPSAHLATSPALLPTLAPLGHKKHKHRAKESQASCRGLQGPLAAGGSTVMGREQVRELPAVVVYESQAGQAVQRHEHHHHHEHHHHYHHFYQP
chain 2: MEPQVTLNVTFKNEIQSFLVSDPENTTWADIEAMVKVSFDLNTIQIKYLDEENEEVSINSQGEYEEALKMAVKQGNQLQMQVHEGHHVVDEAPPPVVGAKRLAARAGKKPLAHYSSLVRVLGSDMKTPEDPAVQSFPLVPCDTDQPQDKPPDWFTSYLETFREQVVNETVEKLEQKLHEKLVLQNPSLGSCPSEVSMPTSEETLFLPENQFSWHIACNNCQRRIVGVRYQCSLCPSYNICEDCEAGPYGHDTNHVLLKLRRPVVGSSEPFCHSKYSTPRLPAALEQVRLQKQVDKNFLKAEKQRLRAEKKQRKAEVKELKKQLKLHRKIHLWNSIHGLQSPKSPLGRPESLLQSNTLMLPLQPCTSVMPMLSAAFVDENLPDGTHLQPGTKFIKHWRMKNTGNVKWSADTKLKFMWGNLTLASTEKKDVLVPCLKAGHVGVVSVEFIAPALEGTYTSHWRLSHKGQQFGPRVWCSIIVDPFPSEESPDNIEKGMISSSKTDDLTCQQEETFLLAKEERQLGEVTEQTEGTAACIPQKAKNVASERELYIPSVDLLTAQDLLSFELLDINIVQELERVPHNTPVDVTPCMSPLPHDSPLIEKPGLGQIEEENEGAGFKALPDSMVSVKRKAENIASVEEAEEDLSGTQFVCETVIRSLTLDAAPDHNPPCRQKSLQMTFALPEGPLGNEKEEIIHIAEEEAVMEEEEDEEDEEEEDELKDEVQSQSSASSEDYIIILPECFDTSRPLGDSMYSSALSQPGLERGAEGKPGVEAGQEPAEAGERLPGGENQPQEHSISDILTTSQTLETVPLIPEVVELPPSLPRSSPCVHHHGSPGVDLPVTIPEVSSVPDQIRGEPRGSSGLVNSRQKSYDHSRHHHGSSIAGGLVKGALSVAASAYKALFAGPPVTAQPIISEDQTAALMAHLFEMGFCDRQLNLRLLKKHNYNILQVVTELLQLNNNDWYSQRY
B2: Nkd1-BirA* [murine] / DVL1 [human (endogenous in Flp-In-T-REx-293)] (parent)
chain 1: B1 chain 1
chain 2: MAETKIIYHMDEEETPYLVKLPVAPERVTLADFKNVLSNRPVHAYKFFFKSMDQDFGVVKEEIFDDNAKLPCFNGRVVSWLVLAEGAHSDAGSQGTDSHTDLPPPLERTGGIGDSRPPSFHPNVASSRDGMDNETGTESMVSHRRERARRRNREEAARTNGHPRGDRRRDVGLPPDSASTALSSELESSSFVDSDEDGSTSRLSSSTEQSTSSRLIRKHKRRRRKQRLRQADRASSFSSITDSTMSLNIVTVTLNMERHHFLGISIVGQSNDRGDGGIYIGSIMKGGAVAADGRIEPGDMLLQVNDVNFENMSNDDAVRVLREIVSQTGPISLTVAKCWDPTPRSYFTVPRADPVRPIDPAAWLSHTAALTGALPRYGTSPCSSAVTRTSSSSLTSSVPGAPQLEEAPLTVKSDMSAVVRVMQLPDSGLEIRDRMWLKITIANAVIGADVVDWLYTHVEGFKERREARKYASSLLKHGFLRHTVNKITFSEQCYYVFGDLCSNLATLNLNSGSSGTSDQDTLAPLPHPAAPWPLGQGYPYQYPGPPPCFPPAYQDPGFSYGSGSTGSQQSEGSKSSGSTRSSRRAPGREKERRAAGAGGSGSESDHTAPSGVGSSWRERPAGQLSRGSSPRSQASATAPGLPPPHPTTKAYTVVGGPPGGPPVRELAAVPPELTGSRQSFQKAMGNPCEFFVDIM
B3: Nkd1-BirA* [murine] / DVL2 (endogenous) [human (endogenous in Flp-In-T-REx-293)] (parent)
chain 1: B1 chain 1
chain 2: MAGSSTGGGGVGETKVIYHLDEEETPYLVKIPVPAERITLGDFKSVLQRPAGAKYFFKSMDQDFGVVKEEISDDNARLPCFNGRVVSWLVSSDNPQPEMAPPVHEPRAELAPPAPPLPPLPPERTSGIGDSRPPSFHPNVSSSHENLEPETETESVVSLRRERPRRRDSSEHGAGGHRTGGPSRLERHLAGYESSSTLMTSELESTSLGDSDEEDTMSRFSSSTEQSSASRLLKRHRRRRKQRPPRLERTSSFSSVTDSTMSLNIITVTLNMEKYNFLGISIVGQSNERGDGGIYIGSIMKGGAVAADGRIEPGDMLLQVNDMNFENMSNDDAVRVLRDIVHKPGPIVLTVAKCWDPSPQAYFTLPRNEPIQPIDPAAWVSHSAALTGTFPAYPGSSSMSTITSGSSLPDGCEGRGLSVHTDMASVTKAMAAPESGLEVRDRMWLKITIPNAFLGSDVVDWLYHHVEGFPERREARKYASGLLKAGLIRHTVNKITFSEQCYYVFGDLSGGCESYLVNLSLNDNDGSSGASDQDTLAPLPGATPWPLLPTFSYQYPAPHPYSPQPPPYHELSSYTYGGGSASSQHSEGSRSSGSTRSDGGAGRTGRPEERAPESKSGSGSESEPSSRGGSLRRGGEASGTSDGGPPPSRGSTGGAPNLRAHPGLHPYGPPPGMALPYNPMMVVMMPPPPPPVPPAVQPPGAPPVRDLGSVPPELTASRQSFHMAMGNPSEFFVDVM
B4: Nkd1-BirA* [murine] / DVL3 [human (endogenous in Flp-In-T-REx-293)] (parent)
chain 1: B1 chain 1
chain 2: MGETKIIYHLDGQETPYLVKLPLPAERVTLADFKGVLQRPSYKFFFKSMDDDFGVVKEEISDDNAKLPCFNGRVVSWLVSAEGSHPDPAPFCADNPSELPPPMERTGGIGDSRPPSFHPHAGGGSQENLDNDTETDSLVSAQRERPRRRDGPEHATRLNGTAKGERRREPGGYDSSSTLMSSELETTSFFDSDEDDSTSRFSSSTEQSSASRLMRRHKRRRRKQKVSRIERSSSFSSITDSTMSLNIITVTLNMEKYNFLGISIVGQSNERGDGGIYIGSIMKGGAVAADGRIEPGDMLLQVNEINFENMSNDDAVRVLREIVHKPGPITLTVAKCWDPSPRGCFTLPRSEPIRPIDPAAWVSHTAAMTGTFPAYGMSPSLSTITSTSSSITSSIPDTERLDDFHLSIHSDMAAIVKAMASPESGLEVRDRMWLKITIPNAFIGSDVVDWLYHNVEGFTDRREARKYASNLLKAGFIRHTVNKITFSEQCYYIFGDLCGNMANLSLHDHDGSSGASDQDTLAPLPHPGAAPWPMAFPYQYPPPPHPYNPHPGFPELGYSYGGGSASSQHSEGSRSSGSNRSGSDRRKEKDPKAGDSKSGGSGSESDHTTRSSLRGPRERAPSERSGPAASEHSHRSHHSLASSLRSHHTHPSYGPPGVPPLYGPPMLMMPPPPAAMGPPGAPPGRDLASVPPELTASRQSFRMAMGNPSEFFVDVM
B5: Nkd1-BirA* [murine] / VANGL2 [human (endogenous in Flp-In-T-REx-293)] (parent)
chain 1: B1 chain 1
chain 2: MDTESQYSGYSYKSGHSRSSRKHRDRRDRHRSKSRDGGRGDKSVTIQAPGEPLLDNESTRGDERDDNWGETTTVVTGTSEHSISHDDLTRIAKDMEDSVPLDCSRHLGVAAGATLALLSFLTPLAFLLLPPLLWREELEPCGTACEGLFISVAFKLLILLLGSWALFFRRPKASLPRVFVLRALLMVLVFLLVVSYWLFYGVRILDARERSYQGVVQFAVSLVDALLFVHYLAVVLLELRQLQPQFTLKVVRSTDGASRFYNVGHLSIQRVAVWILEKYYHDFPVYNPALLNLPKSVLAKKVSGFKVYSLGEENSTNNSTGQSRAVIAAAARRRDNSHNEYYYEEAEHERRVRKRRARLVVAVEEAFTHIKRLQEEEQKNPREVMDPREAAQAIFASMARAMQKYLRTTKQQPYHTMESILQHLEFCITHDMTPKAFLERYLAAGPTIQYHKERWLAKQWTLVSEEPVTNGLKDGIVFLLKRQDFSLVVSTKKVPFFKLSEEFVDPKSHKFVMRLQSETSV
B6: Nkd1-BirA* [murine] / VANGL1 [human (endogenous in Flp-In-T-REx-293)] (parent)
chain 1: B1 chain 1
chain 2: MDTESTYSGYSYYSSHSKKSHRQGERTRERHKSPRNKDGRGSEKSVTIQPPTGEPLLGNDSTRTEEVQDDNWGETTTAITGTSEHSISQEDIARISKDMEDSVGLDCKRYLGLTVASFLGLLVFLTPIAFILLPPILWRDELEPCGTICEGLFISMAFKLLILLIGTWALFFRKRRADMPRVFVFRALLLVLIFLFVVSYWLFYGVRILDSRDRNYQGIVQYAVSLVDALLFIHYLAIVLLELRQLQPMFTLQVVRSTDGESRFYSLGHLSIQRAALVVLENYYKDFTIYNPNLLTASKFRAAKHMAGLKVYNVDGPSNNATGQSRAMIAAAARRRDSSHNELYYEEAEHERRVKKRKARLVVAVEEAFIHIQRLQAEEQQKAPGEVMDPREAAQAIFPSMARALQKYLRITRQQNYHSMESILQHLAFCITNGMTPKAFLERYLSAGPTLQYDKDRWLSTQWRLVSDEAVTNGLRDGIVFVLKCLDFSLVVNVKKIPFIILSEEFIDPKSHKFVLRLQSETSV

Variants of: B1
Test: BioID proximity labeling (mass spectrometry)
Settings: with NBR1 [human (endogenous in Flp-In-T-REx-293)]; +Wnt3a

| response (unweighted spectral counts) | Variant |
| --- | --- |
| 24 | chain 1 G2A |

Variants of: B2
Test: BioID proximity labeling (mass spectrometry)
Settings: with DVL1 [human (endogenous in Flp-In-T-REx-293)]; +Wnt3a

| response (unweighted spectral counts) | Variant |
| --- | --- |
| 127 | chain 1 G2A |

Variants of: B3
Test: BioID proximity labeling (mass spectrometry)
Settings: with DVL2 (endogenous) [human (endogenous in Flp-In-T-REx-293)]; +Wnt3a

| response (unweighted spectral counts) | Variant |
| --- | --- |
| 303 | chain 1 G2A |

Variants of: B4
Test: BioID proximity labeling (mass spectrometry)
Settings: with DVL3 [human (endogenous in Flp-In-T-REx-293)]; +Wnt3a

| response (unweighted spectral counts) | Variant |
| --- | --- |
| 240 | chain 1 G2A |

Variants of: B5
Test: BioID proximity labeling (mass spectrometry)
Settings: with VANGL2 [human (endogenous in Flp-In-T-REx-293)]; +Wnt3a

| response (unweighted spectral counts) | Variant |
| --- | --- |
| 3 | chain 1 G2A |

Variants of: B6
Test: BioID proximity labeling (mass spectrometry)
Settings: with VANGL1 [human (endogenous in Flp-In-T-REx-293)]; +Wnt3a

| response (unweighted spectral counts) | Variant |
| --- | --- |
| 7 | chain 1 G2A |
